First the molecules themselves.
B1: human centriolin Nud1 domain (amino acids 127-233 of centriolin) fused to the GAL4 transactivation domain (other, not shown: small tags and cut ends)
chain (part 1 of 2): ANFNQSGNIADSSLSFTFTNSSNGPNLITTQTNSQALSQPIASSNVHDNFMNNEITASKIDDGNNSKPLSPGWTDQTAYNAFGITTGMFNTTTMDDVYNYLFDDEDTPPNPKKE
chain (part 2 of 2): LEVLNLSYNLIGKIEKLDKLLKLRELNLSYNKISKIEGIENMCNLQKLNLAGNEIEHIPVWLGKKLKSLRVLNLKGNKISSLQDISKLKPLQDLISLILVENPVVTL
notes: also called TAD-hNud1; hNud1
B2: GAL4 transactivation domain alone (other, UniProt P04386 768-881, looked up)
chain: B1 chain (part 1 of 2)
notes: also called TAD
B3: LexA alone (pEG202) (other, UniProt P0A7C2 1-202, looked up)
chain: MKALTARQQEVFDLIRDHISQTGMPPTRAEIAQRLGFRSPNAAEEHLKALARKGVIEIVSGASRGIRLLQEEEEGLPLVGRVAAGEPLLAQQHIEGHYQVDPSLFKPNADFLLRVSGMSMKDIGIMDGDLLAVHKTQDVRNGQVVVARIDDEVTVKRLKKQGNKVELLPENSEFKPIVVDLRQQSFTIEGLAVGVIRNGDWL

In assay [1] the target is T1, LexA-tagged budding yeast Bfa1p (pGP122, LexA-BFA1) (budding yeast, UniProt P47113 1-574, limits assumed).
T1 construct: Construct pGP122 obtained from Elmar Schiebel; also called LexA-Bfa1p; not shown: LexA part of the vector
T1 sequence (looked up): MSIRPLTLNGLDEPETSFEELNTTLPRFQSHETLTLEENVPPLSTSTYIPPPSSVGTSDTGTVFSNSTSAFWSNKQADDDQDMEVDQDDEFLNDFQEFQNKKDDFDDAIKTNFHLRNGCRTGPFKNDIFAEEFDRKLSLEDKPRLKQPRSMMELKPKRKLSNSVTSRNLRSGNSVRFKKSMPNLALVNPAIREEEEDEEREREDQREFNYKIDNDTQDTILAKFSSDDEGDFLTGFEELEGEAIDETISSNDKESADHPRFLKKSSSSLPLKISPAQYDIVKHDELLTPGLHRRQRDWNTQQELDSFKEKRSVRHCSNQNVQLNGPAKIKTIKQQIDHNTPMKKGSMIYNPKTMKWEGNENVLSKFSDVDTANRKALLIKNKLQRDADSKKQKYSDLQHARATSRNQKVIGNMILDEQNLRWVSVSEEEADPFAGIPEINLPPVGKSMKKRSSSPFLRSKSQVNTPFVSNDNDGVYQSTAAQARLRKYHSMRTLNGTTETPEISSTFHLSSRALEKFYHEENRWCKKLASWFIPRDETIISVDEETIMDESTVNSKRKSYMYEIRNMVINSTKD
The assay can be described thus: directed yeast two-hybrid. An excerpt:
(§1) A 321 base pair fragment containing amino acids 127-233 of centriolin were cloned into EcoR I and Sal I sites of pGADT7 (Clontech) to produce a fusion with the GAL4 transactivation domain (TAD). Constructs pEG202 (LexA), pGP69 (LexA-BUB2), pGP122 (LexA-BFA1) and the yeast strain SGY37 were from Elmar Schiebel (Paterson Institute for Cancer Research, Manchester, U.K.). SGY37, which contains a LacZ reporter gene under control of a LexA operator, was transformed with plasmid DNA using LiAc (Ito et al., J Bacteriol, 153:163-168, 1983) and transformants selected for on dropout medium. Methods used were semi-quantitative β-galactosidase assays (Schramm et al., Methods Cell Biol., 67:71-94, 2001) and more quantitative β-galactosidase assays with CPRG (chlorophenol red-b-D-galactopyranoside, Roche) as a substrate per the manufacturer's instructions (Clontech Yeast Protocols Handbook). Co-immunopreciptation of LexA and GAL4 TAD fusion proteins were carried out as previously described (Schramm et al., Methods Cell Biol., 67:71-94, 2001).

The target in assay [2] is T2, LexA-tagged budding yeast Bub2p (pGP69, LexA-BUB2) (budding yeast, UniProt P26448 1-306, limits assumed).
T2 construct: Construct pGP69 obtained from Elmar Schiebel; also called LexA-Bub2p; not shown: LexA part of the pEG202-type vector
T2 sequence (looked up): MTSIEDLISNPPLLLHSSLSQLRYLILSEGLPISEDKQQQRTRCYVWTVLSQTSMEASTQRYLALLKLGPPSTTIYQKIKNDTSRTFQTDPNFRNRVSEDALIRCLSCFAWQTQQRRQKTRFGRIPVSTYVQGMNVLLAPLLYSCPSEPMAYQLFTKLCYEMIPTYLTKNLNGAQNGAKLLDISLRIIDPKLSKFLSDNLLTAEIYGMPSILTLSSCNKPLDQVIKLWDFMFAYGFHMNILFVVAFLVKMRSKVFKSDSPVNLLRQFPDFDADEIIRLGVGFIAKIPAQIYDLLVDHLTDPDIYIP
The assay can be described thus: directed yeast two-hybrid, LexA-BUB2 x TAD control.
Source text: as §1

The target in assay [3] is B1. The assay can be described thus: directed yeast two-hybrid, TAD-hNud1 x LexA control.
Source text: as §1

In the case of B1, the binding result in assay [1] is listed as “no binding”.

In the case of B2, the binding result in assay [2] is “no binding”.

As to B3, the binding result in assay [3] is on record as “no binding”.

The record behind these values is US20040175721A1 (UNIVERSITY OF MASSACHUSETTS A MASSACHUSETTS, published 2004).
